According to US20200262920A1 (AMPHIVENA THERAPEUTICS, published 2020):
Several values for one entry are separate records, joined by “and”; a condition that tells them apart may be missing. Equal entries are not always repeated.

Tests used:
human CD3 [1] = molecular target: T1, human CD3 (human, UniProt P07766 23-207; P09693 23-182; P04234 22-171; P20963 22-164); experiment: flow cytometry, human T-cells
T1 construct: whole, on cells; the description names the epsilon chain only 'in certain instances'; also called hu CD3; CD3 on T cells

human CD3 [2] = molecular target: T1, human CD3; experiment: flow cytometry titration, T cells (human CD3+)
human CD33 [3] = molecular target: T2, human CD33 (human, UniProt P20138 18-364); experiment: cell-based or functional assay
human CD33 [4] = molecular target: T2, human CD33; experiment: cell-based or functional assay; remark: listed apart in the source
human CD3 [5] = molecular target: T1, human CD3; experiment: cell-based or functional assay
human CD33 [6] = molecular target: T2, human CD33; experiment: cell-based or functional assay; remark: listed apart in the source
human CD33 [7] = molecular target: T2, human CD33; experiment: flow cytometry titration, KG-1 cells
Summary of the method: (§1)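 Cells titrated with CD33/CD3 2×2 T-cell engagers, detected via anti-His then FITC anti-mouse IgG on ice, with PI exclusion of dead cells. Background-subtracted mean fluorescence fit to one-site binding for KD; cross-reactivity ratio from KDs on CHO cells expressing recombinant cynomolgus or human CD33.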

human CD33 [8] = molecular target: T2, human CD33; experiment: flow cytometry titration, U-937 cells
Summary of the method: as §1

human CD33 [9] = molecular target: T2, human CD33; experiment: flow cytometry, HL-60 cells
human CD33 [10] = molecular target: T2, human CD33; experiment: flow cytometry titration, HL-60 cells
Summary of the method: as §1

human CD33 [11] = molecular target: T2, human CD33; experiment: cell-based or functional assay; remark: listed apart in the source
human CD33 [12] = molecular target: T2, human CD33; experiment: cell-based or functional assay; remark: listed apart in the source

T1 sequence (P07766 23-207, chain 1 of 4): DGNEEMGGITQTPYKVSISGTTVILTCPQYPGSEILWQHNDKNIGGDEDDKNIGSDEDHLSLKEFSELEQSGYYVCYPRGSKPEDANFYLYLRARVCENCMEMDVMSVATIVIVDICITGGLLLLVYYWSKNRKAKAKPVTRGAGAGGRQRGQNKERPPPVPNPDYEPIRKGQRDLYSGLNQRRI
T1 sequence (P09693 23-182, chain 2 of 4): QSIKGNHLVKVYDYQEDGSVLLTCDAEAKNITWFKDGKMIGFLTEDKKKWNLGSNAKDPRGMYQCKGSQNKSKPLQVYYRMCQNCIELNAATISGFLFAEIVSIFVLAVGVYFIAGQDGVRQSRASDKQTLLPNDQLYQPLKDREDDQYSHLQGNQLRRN
T1 sequence (P04234 22-171, chain 3 of 4): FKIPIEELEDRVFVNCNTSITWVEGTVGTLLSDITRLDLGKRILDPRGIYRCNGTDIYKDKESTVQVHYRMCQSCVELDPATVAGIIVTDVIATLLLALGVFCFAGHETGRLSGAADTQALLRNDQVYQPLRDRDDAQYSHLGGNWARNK
T1 sequence (P20963 22-164, chain 4 of 4): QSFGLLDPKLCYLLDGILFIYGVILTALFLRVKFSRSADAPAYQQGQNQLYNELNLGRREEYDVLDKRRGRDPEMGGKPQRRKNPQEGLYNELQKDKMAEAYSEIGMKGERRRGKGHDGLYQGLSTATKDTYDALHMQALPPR
T2 sequence (P20138 18-364): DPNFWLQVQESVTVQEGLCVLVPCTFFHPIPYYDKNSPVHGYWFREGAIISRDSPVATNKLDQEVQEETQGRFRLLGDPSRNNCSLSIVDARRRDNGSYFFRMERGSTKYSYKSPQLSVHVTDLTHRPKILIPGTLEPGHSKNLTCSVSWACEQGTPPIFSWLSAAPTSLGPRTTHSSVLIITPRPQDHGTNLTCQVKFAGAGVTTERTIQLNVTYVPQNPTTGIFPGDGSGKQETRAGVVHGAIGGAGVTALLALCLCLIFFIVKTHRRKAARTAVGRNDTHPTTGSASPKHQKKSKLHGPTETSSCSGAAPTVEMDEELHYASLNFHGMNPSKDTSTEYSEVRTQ

B1: CD33/CD3 2×2 T-cell engager 16 (bispecific antibody)
chain: DIQMTQSPSSLSASVGDRVTITCRSSTGAVTTSNYANWVQQKPGKAPKALIGGTNKRAPGVPSRFSGSLIGDKATLTISSLQPEDFATYYCALWYSNLWVFGQGTKVEIKGGSGGSQVQLVQSGAEVKKPGASVKVSCKASGYTFTSYDINWVRQAPGQGLEWMGWMNPNSGNTGFAQKFQGRVTMTRDTSTSTVYMELSSLRSEDTAVYYCARDRANTDYSLGMDVWGQGTLVTVSSGGSGQSVLTQPPSASGTPGQRVTISCSGSRSNIGSNTVNWYQQLPGTAPKLLIYGNNQRPSGVPDRFSGSKSGTSASLAISGLQSEDEADYYCATWDDSLIGWVFGGGTKLTVLGGSGGSEVQLVESGGGLVQPGGSLRLSCAASGFTFSTYAMNWVRQAPGKGLEWVGRIRSKYNNYATYYADSVKDRFTISRDDSKNSLYLQMNSLKTEDTAVYYCARHGNFGNSYVSYFAYWGQGTLVTVSSAAAGSHHHHHH
notes: Non-covalent homodimer; also called AMV564; AMV 564
Kd (human CD3 [1]): 5100 pM | Kd (human CD3 [2]): 2100 pM | EC50, calcein-release lysis of HL-60, 30 min incubation (human CD33 [3]): 4.8 pM | EC50, calcein-release lysis of HL-60, 60 min incubation (human CD33 [3]): 2.5 pM | EC50, calcein-release lysis of HL-60, 120 min incubation (human CD33 [3]): 1.6 pM | EC50, calcein-release lysis of HL-60, 180 min incubation (human CD33 [3]): 1.6 pM | EC50, calcein-release lysis of HL-60, 240 min incubation (human CD33 [3]): 1.5 pM | EC50, calcein-release lysis of HL-60, 300 min incubation (human CD33 [3]): 1.6 pM | EC50, cytotoxicity on HL-60 (human CD33 [4]): 1.5 pM and 158 pg/mL | EC50, cytotoxicity on KG-1 (human CD33 [4]): 1.8 pM and 189 pg/mL | EC50, cytotoxicity on U-937 (human CD33 [4]): 1.9 pM and 200 pg/mL | EC50, cytotoxicity, mean of HL-60, U-937, KG-1 (human CD33 [4]): 1.7 pM and 179 pg/mL | CD25 Induction EC50 (human CD3 [5]): 1 pM | CD69 Induction EC50 (human CD3 [5]): 2 pM | T cell Proliferation in PBMC EC50 (human CD3 [5]): 3 pM | EC50 (mean), redirected lysis of BV-173 cells (human CD33 [6]): 3.2 pM | EC50 (mean), redirected lysis of CHO-CD33 cells (human CD33 [6]): 24 pM | EC50 (mean), redirected lysis of HL-60 cells (human CD33 [6]): 1.6 pM | EC50 (mean), redirected lysis of K562 cells (human CD33 [6]): 4.8 pM | EC50 (mean), redirected lysis of KASUMI-1 cells (human CD33 [6]): 2.4 pM | EC50 (mean), redirected lysis of KG-1 cells (human CD33 [6]): 1.9 pM | EC50 (mean), redirected lysis of RPMI-8226 cells (human CD33 [6]): 2.8 pM | EC50 (mean), redirected lysis of THP-1 cells (human CD33 [6]): 6 pM | EC50 (mean), redirected lysis of U-937 cells (human CD33 [6]): 1.3 pM | Kd (human CD33 [7]): 200 pM | Kd (human CD33 [8]): 300 pM | Kd (human CD33 [9]): 300 pM | Kd (human CD33 [10]): 300 pM | EC50 on HL-60 (cytotoxicity) (human CD33 [11]): 1.5 pM | IC50, lysis of KG-1 cells (separate experiment) (human CD33 [12]): 5 pM | IC50, lysis of KG-1 cells with human T cells (human CD33 [12]): ~0.5 pM
